Experimental data from patent US8119354B2, “Cell-free assay product and method of use thereof for measuring activity of frizzled receptors” (Universitaet Konstanz, priority 2007, dated 2012).

B1: Wnt7a: Wnt ligand (secreted Wnt family protein), frizzled receptor agonist (protein, UniProt O00755 32-349, looked up)
Protein Wnt-7a: LGASIICNKIPGLAPRQRAICQSRPDAIIVIGEGSQMGLDECQFQFRNGRWNCSALGERTVFGKELKVGSREAAFTYAIIAAGVAHAITAACTQGNLSDCGCDKEKQGQYHRDEGWKWGGCSADIRYGIGFAKVFVDAREIKQNARTLMNLHNNEAGRKILEENMKLECKCHGVSGSCTTKTCWTTLPQFRELGYVLKDKYNEAVHVEPVRASRNKRPTFLKIKKPLSYRKPMDTDLVYIEKSPNYCEEDPVTGSVGTQGRACNKTAPQASGCDLMCCGRGYNTHQYARVWQCNCKFHWCCYVKCNTCSERTEMYTCK
B2: Wnt5a: Wnt ligand (secreted Wnt family protein), frizzled receptor agonist (protein, UniProt P41221 62-380, looked up)
Protein Wnt-5a: IIGAQPLCSQLAGLSQGQKKLCHLYQDHMQYIGEGAKTGIKECQYQFRHRRWNCSTVDNTSVFGRVMQIGSRETAFTYAVSAAGVVNAMSRACREGELSTCGCSRAARPKDLPRDWLWGGCGDNIDYGYRFAKEFVDARERERIHAKGSYESARILMNLHNNEAGRRTVYNLADVACKCHGVSGSCSLKTCWLQLADFRKVGDALKEKYDSAAAMRLNSRGKLVQVNSRFNSPTTQDLVYIDPSPDYCVRNESTGSLGTQGRLCNKTSEGMDGCELMCCGRGYDQFKTVQTERCHCKFHWCCYVKCKKCTEIVDQFVCK
B3: Wnt5b: Wnt ligand (secreted Wnt family protein), frizzled receptor agonist (protein, UniProt Q9H1J7 18-359, looked up)
Protein Wnt-5b: QLLTDANSWWSLALNPVQRPEMFIIGAQPVCSQLPGLSPGQRKLCQLYQEHMAYIGEGAKTGIKECQHQFRQRRWNCSTADNASVFGRVMQIGSRETAFTHAVSAAGVVNAISRACREGELSTCGCSRTARPKDLPRDWLWGGCGDNVEYGYRFAKEFVDAREREKNFAKGSEEQGRVLMNLQNNEAGRRAVYKMADVACKCHGVSGSCSLKTCWLQLAEFRKVGDRLKEKYDSAAAMRVTRKGRLELVNSRFTQPTPEDLVYVDPSPDYCLRNESTGSLGTQGRLCNKTSEGMDGCELMCCGRGYNQFKSVQVERCHCKFHWCCFVRCKKCTEIVDQYICK

Legend:
[1] = Solubility of purified Wnt3A after heparin chromatography; type: physicochemical; conditions: 1×PBS, 1M NaCl, 1% CHAPS, pH7.3
Procedure: To purify Wnt protein as an example for a typical Fz ligand LWnt3A or LWnt5A cell lines producing and secreting Wnt proteins were used. By growing the cells adherent for 4 days from a 1:10 to 1:20 split high amounts of Wnt-3A were obtained. The medium was DMEM plus 10% FBS, omitting the serum lowers the levels of Wnt protein in the medium. The Wnt containing medium was filtered, detergent was added (Triton X-100 or CHAPS) to a final concentration of 1%, and the medium was refiltered just before applying the material to Blue Sepharose.
Purification by Blue Sepharose fractionation yielded pure Wnt protein, wherein Wnt3A conditioned medium was applied on a Blue Sepharose HP column. Wnt elution from Blue Sepharose was done in a single step from 150 mM to 1.5 M KCl. Approximately, half of the Wnt protein eluted immediately with the salt and the majority of contaminants, but the other half was retained and eluted later in a second pool. This second pool contained much less total protein and consequently contained a higher proportion of Wnt.
Pooled eluted Wnt fractions from Blue Sepharose purification were concentrated by […] to 5 or 10 ml volume using Centricon or Amicon Ultra 30 ultrafiltration device (Amicon) depending on size of […] column. […]

hFz1 = molecular target: T1, hFz1 (Homo sapiens, UniProt Q9UP38); test: Europium-GTP assay of G protein (Go) activation by hFz1 membranes; type: biochemical; conditions: for relative stimulation among the Wnt ligands tested: detergent-solubilized hFz1, GTP incorporation into Go; for activation of the trimeric Go protein (GTP incorporation into Go): detergent-solubilized hFz1-expressing membrane fractions, not control membranes
T1 construct: made in house; host or cells: Escherichia coli (pMAL-p2), membrane fraction
T1 sequence (Q9UP38 70-647): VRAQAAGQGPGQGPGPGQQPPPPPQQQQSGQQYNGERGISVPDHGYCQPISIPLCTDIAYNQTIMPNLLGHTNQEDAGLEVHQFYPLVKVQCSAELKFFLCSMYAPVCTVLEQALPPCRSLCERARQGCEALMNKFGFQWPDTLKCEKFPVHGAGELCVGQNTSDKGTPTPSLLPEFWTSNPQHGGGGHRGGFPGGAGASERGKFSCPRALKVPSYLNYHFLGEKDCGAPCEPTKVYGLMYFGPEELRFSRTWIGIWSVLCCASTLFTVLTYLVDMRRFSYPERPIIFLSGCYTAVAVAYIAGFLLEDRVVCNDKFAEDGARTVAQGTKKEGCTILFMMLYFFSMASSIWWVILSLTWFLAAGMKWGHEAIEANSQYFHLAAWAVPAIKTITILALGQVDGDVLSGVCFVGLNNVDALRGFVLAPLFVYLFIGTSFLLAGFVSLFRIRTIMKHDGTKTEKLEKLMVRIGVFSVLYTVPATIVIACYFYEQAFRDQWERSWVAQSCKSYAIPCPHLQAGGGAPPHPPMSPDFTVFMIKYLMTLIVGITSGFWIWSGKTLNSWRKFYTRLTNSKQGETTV
Procedure: The coding sequence of hFz1 was cloned in-frame into the pMAL-p2 plasmid (New England BioLabs) allowing expression of the protein as an N-terminal fusion with maltose binding protein (MBP). The natural signal sequence of MBP directs the fusion protein through the cytoplasmic membrane. Expression conditions were optimized to allow slow expression to maximize correct hFz1 folding: Expression was performed at 18° C. for 18 h, and in the presence of glucose to minimize the expression of endogenous MBP protein.
Bacteria were harvested by centrifugation, resuspended in PBS (phosphate-buffered saline) and disrupted by French press. The resultant suspension was cleared from the cell debris by low-speed centrifugation, followed by ultracentrifugation to pellet the membranes expressing MBP-hFz1. The membranes were resuspended in PBS supplemented with the protease-inhibitor cocktail (Roche) and frozen in aliquots at −80° C. Control bacteria were transformed with the empty pMAL-p2 vector, induced with IPTG, grown and harvested in parallel with hFz1-transformed bacteria.
HFz1 coding sequence was subcloned into pIRES2-DsRed-Express plasmid (Invitrogen). CHO cells were transiently transfected with lipofectamine following manufacturer's protocol. Transfection efficiency was estimated to be >50%. Two days post-transfection, transfected cells in parallel with control non-transfected cells of a similar cell density were washed, detached with EDTA, pelleted, washed with PBS, and disrupted in a glass-rod homogenizer in a hypotonic buffer (10 mM Hepes pH 7.5). Membrane fraction was prepared and stored as above.
Europium-GTP assay of G protein activation using a time-resolved fluorescence assay was performed. In one well of a 96-well AcroWell plate, 100 μl were mixed containing 4-10 μg/ml membrane protein from the hFz1 expression in bacteria or in CHO, 50 mM Hepes, pH 7.4, 1 mM MgCl2, 50 mM NaCl and 1 mg/ml saponin. Bacterial membranes expressing hFz1 or bacterial control membranes were used at 0.1 mg/ml protein concentration for membrane protein preparation. CHO membranes expressing hFz1 or CHO control membranes were used at 0.01 mg/ml protein concentration. Varying amounts of the following were added: bovine brain Go (Calbiochem), Wnt3a (R&Dsystems), Wnt3a-conditioned or control L-cell medium. Extra GDP was omitted in most experiments. 30 min after incubating this mixture at room temperature on a shaker (100 rpm), Europium-GTP was added, and incubation was continued for 30 more min. Afterwards the content of the wells was filtered and washed using the Multiscreen Vacuum Manifold (Millipore). Amounts of Europium-GTP retained by the membranes were then measured using the Perkin Elmer Victor3 Multilabel Plate Reader.

hFz6 = molecular target: T2, hFz6 (Homo sapiens, UniProt O60353); test: in vitro Go activation assay with bacterially expressed hFz6; type: biochemical; conditions: detergent-solubilized bacterially expressed hFz6
T2 construct: made in house
Text: (§1) The results obtained with three human Frizzled receptors (hFz1, hFz6, hFz7) and four Wnt ligands (Wnt3a, Wnt5a, Wnt5b, and Wnt7a) allow to compose a table of pair-wise Wnt-Frizzled activations using Go stimulation as the read-out (FIG. 5C).
(§2) Detergent-solubilized hFz6 and Fz7 stimulated GTP incorporation into Go in the presence of different Wnt ligands. Data are presented in FIG. 5C as summary of the capacity of the tested Wnt ligands to stimulate the tested Frizzled receptors to activate Go in vitro. […] Go activation by the Wnt-Frizzled pairs is denoted (in the order of the decreasing activation capacity) as “+++”, “++”, “+”, “+/−”, and “−” using as criteria the lowest Go-activating Wnt concentration as well as the maximal Go activation level achieved by any Wnt concentration.
(§3) Europium-GTP assay of G protein activation using a time-resolved fluorescence assay was performed. In one well of a 96-well AcroWell plate, 100 μl were mixed containing 4-10 μg/ml membrane protein from the hFz1 expression in bacteria or in CHO, 50 mM Hepes, pH 7.4, 1 mM MgCl2, 50 mM NaCl and 1 mg/ml saponin. Bacterial membranes expressing hFz1 or bacterial control membranes were used at 0.1 mg/ml protein concentration for membrane protein preparation. […] Amounts of Europium-GTP retained by the membranes were then measured using the Perkin Elmer Victor3 Multilabel Plate Reader.

hFz7 = molecular target: T3, hFz7 (Homo sapiens, UniProt O75084); test: in vitro Go activation assay with bacterially expressed hFz7; type: biochemical; conditions: detergent-solubilized bacterially expressed hFz7
T3 construct: made in house
Text: as §1, §2, §3

| Molecule | relative stimulation among the Wnt ligands tested (hFz1) | activation of the trimeric Go protein (GTP incorporation into Go) (hFz1) | also measured |
| --- | --- | --- | --- |
| Wnt3a | most active |  | solubility and activity maintained at a maximum concentration [1]: ≤ 100 µg/mL; stimulation of hFz1 activity towards Go (hFz1; E. coli-produced hFZ1 membranes, 0.3 μg/ml purified Wnt3a): stimulated |
| fMDGCEL [reference compound] |  |  | stimulation of hFz1 activity towards Go (hFz1; E. coli produced hFz1 membranes, Wnt5a mimetic peptide): can be stimulated |
| B1 | more modest stimulation | concentration-dependent activation | Go activation by hFz6 upon addition of ligand (hFz6): activated Go |
| B2 | most active | concentration-dependent activation | Go activation by hFz7 upon addition of ligand (hFz7): mostly stimulated |
| B3 | more modest stimulation | concentration-dependent activation |  |
